Measured values as given in patent US20240043515A1 (Chugai, published 2024).
Positions count from the first letter of the chain named. Names may count otherwise.

T1: human FcγRIIa R extracellular domain (human, UniProt P12318 34-217)
T1 construct: extracellular domain; also called hFcγR IIa R; FcγRIIa allotype R131
T1 sequence (looked up): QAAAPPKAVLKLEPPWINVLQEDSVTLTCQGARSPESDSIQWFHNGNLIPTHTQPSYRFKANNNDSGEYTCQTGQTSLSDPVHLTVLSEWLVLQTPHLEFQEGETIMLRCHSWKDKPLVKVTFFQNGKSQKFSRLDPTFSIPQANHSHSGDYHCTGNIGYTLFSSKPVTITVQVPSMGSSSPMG

T2: human FcγRIIa H extracellular domain (human, UniProt P12318 34-217)
T2 construct: extracellular domain; also called hFcγR IIa H; FcγRIIa allotype H131
T2 sequence (looked up): T1 sequence (looked up) with R134H

T3: human FcγRIIb extracellular domain (human, UniProt P31994 43-217)
T3 construct: extracellular domain; also called hFcγR IIb
T3 sequence (looked up): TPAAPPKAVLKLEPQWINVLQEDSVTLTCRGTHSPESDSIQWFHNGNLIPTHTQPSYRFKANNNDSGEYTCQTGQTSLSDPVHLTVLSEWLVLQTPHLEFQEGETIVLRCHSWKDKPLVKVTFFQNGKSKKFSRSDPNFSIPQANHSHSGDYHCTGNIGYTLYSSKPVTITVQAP

T4: hFcγRIIaH on Jurkat effector cells (human, UniProt P12318 34-317)
T4 sequence (looked up): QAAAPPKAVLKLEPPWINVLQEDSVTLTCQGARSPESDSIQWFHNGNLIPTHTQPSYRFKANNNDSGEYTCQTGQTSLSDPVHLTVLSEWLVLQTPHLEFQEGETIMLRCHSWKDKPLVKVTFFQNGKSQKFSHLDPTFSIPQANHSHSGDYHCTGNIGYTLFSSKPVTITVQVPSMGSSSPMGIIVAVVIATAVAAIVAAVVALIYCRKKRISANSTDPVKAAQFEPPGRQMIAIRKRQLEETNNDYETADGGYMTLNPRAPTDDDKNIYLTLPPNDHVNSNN

B1: EGL-ART11 (H240-Kn496/L73-k0//H240-H1516/L73-k0) (antibody, human IgG1, kappa)
heavy 1: QDQLVQSGAEVKKPGASVKVSCKASGFNIKDTYIQWVRQAPGQGLEWMGRIDPLRKQTKYREKFEGRVTITADTSTNTAYMELSSLRSEDTAVYYCVRSGREFDYWGQGTLVTVSSASTKGPSVFPLAPSSKSTSGGTAALGCLVKDYFPEPVTVSWNSGALTSGVHTFPAVLQSSGLYSLSSVVTVPSSSLGTQTYICNVNHKPSNTKVDKKVEPKSCDKTHTCPPCPAPEFQWGPMVFLFPPKPKDVLMISRTPEVTCVVVDVSDEEPEVKFNWYVDGVEVHNAKTKPREEQYNATYRVVSVLPVLHQDWLNGKEYKCKVSNKALPAPIEKTISKAKGQPREPQVCTLPPSRDELTKNQVSLWCLVKGFYPSDIAVEWESNGQPENNYKTTPPVLDSDGSFFLYSKLTVDKSRWQQGNVFSCSVMHEALHNHYTQKSLSLSP
heavy 2: QDQLVQSGAEVKKPGASVKVSCKASGFNIKDTYIQWVRQAPGQGLEWMGRIDPLRKQTKYREKFEGRVTITADTSTNTAYMELSSLRSEDTAVYYCVRSGREFDYWGQGTLVTVSSASTKGPSVFPLAPSSKSTSGGTAALGCLVKDYFPEPVTVSWNSGALTSGVHTFPAVLQSSGLYSLSSVVTVPSSSLGTQTYICNVNHKPSNTKVDKKVEPKSCDKTHTCPPCPAPELLGGPSVFLFPPKPKDVLMISRTPEVTCVVVDVSHEEPEVKFNWYVDGVEVHNAKTKPREEQYNATYRVVSVLPVLHQDWLNGKEYKCKVSNDALPAPIEETISKAKGQPREPQVYTLPPSRCELTKNQVSLSCAVKGFYPSDIAVEWESNGQPENNYKTTPPVLDSDGSFFLVSKLTVDKSRWQQGNVFSCSVMHEALHNHYTQKSLSLSP
light: DIQMTQSPSSLSASVGDRVTITCRASQDIHKYIAWYQQKPGQAPRLLIQYTSTLQPGVPSRFSGSGSGTDYTFTISSLQPEDIATYYCLQYEQLRTFGGGTKVEIKRTVAAPSVFIFPPSDEQLKSGTASVVCLLNNFYPREAKVQWKVDNALQSGNSQESVTEQDSKDSTYSLSSTLTLSKADYEKHKVYACEVTHQGLSSPVTKSFNRGEC
notes: Kn496: L234F/L235Q/G236W/S239M/T250V/H268D/D270E/S298A/T307P + Y349C/T366W; H1516: T250V/D270E/S298A/T307P/K326D/K334E + D356C/T366S/L368A/Y407V
B2: EGL-ART2 (H240-Kn120/L73-k0//H240-H1068/L73-k0) (antibody, human IgG1, kappa)
heavy 1: B1 heavy 1 with F233Y, Q234Y, V249T, E269D, P306T, A326D
heavy 2: B1 heavy 2 with V249T, A297S, P306T, A329K
light: B1 light
notes: Kn120: L234Y/L235Y/G236W/S239M/H268D/S298A/A327D + Y349C/T366W; also called Kn120/H1068
B3: EGL-ART4 (H240-Kn456/L73-k0//H240-H1446/L73-k0) (antibody, human IgG1, kappa)
heavy 1: B1 heavy 1 with A329M, I331E
heavy 2: B1 heavy 2 with G235A, A329M, I331E
light: B1 light
notes: Kn456: L234F/L235Q/G236W/S239M/T250V/H268D/D270E/S298A/T307P/A330M/I332E + Y349C/T366W; H1446: G236A/T250V/D270E/S298A/T307P/K326D/A330M/I332E/K334E + D356C/T366S/L368A/Y407V
B4: EGL-ART1 (H240-Kn125/L73-k0//H240-H1076/L73-k0) (antibody, human IgG1, kappa)
heavy 1: B1 heavy 1 with F233Y, V249T, P306T
heavy 2: B1 heavy 2 with V249T, A297S, P306T, A329M
light: B1 light
notes: Heterodimeric Fc variant of the anti-human Epiregulin IgG1; Kn125: L234Y/L235Q/G236W/S239M/H268D/D270E/S298A + Y349C/T366W; H1076: D270E/K326D/A330M/K334E + D356C/T366S/L368A/Y407V (EU numbering); also called Kn125/H1076
B5: EGL-ART3 (H240-Kn443/L73-k0//H240-H1408/L73-k0) (antibody, human IgG1, kappa)
heavy 1: B1 heavy 1 with V249T, P306T, K325D
heavy 2: B1 heavy 2 with G235A, V249T, P306T
light: B1 light
notes: Kn443: L234F/L235Q/G236W/S239M/H268D/D270E/S298A/K326D + Y349C/T366W; H1408: G236A/D270E/S298A/K326D/K334E + D356C/T366S/L368A/Y407V

These binders were tested against T1, human FcγRIIa R extracellular domain (assay: SPR; KD of G1d divided by KD of this antibody).
Procedure: (§1) The extracellular domains of FcγRs were produced by the method described in WO2014104165. The interaction between the produced antibodies and human FcγRs was analyzed using Biacore 8K+ by the method below. For the running buffer, 50 mM Na-Phosphate, 150 mM NaCl, and 0.05% Tween20 (pH 7.4) was used, and measurement was performed at 25° C. The sensor chip used was a Series S SA chip (GE Healthcare) onto which CaptureSelect Human Fab-kappa Kinetics Biotin Conjugate (Thermo Fisher Scientific) was immobilized. An antibody of interest was captured onto this chip, and each FcγR diluted with the running buffer was allowed to interact with it. The chip was regenerated using 10 mM Glycine-HCl (pH 1.5), and repeatedly used to capture antibodies and perform measurement. The dissociation constants KD (mol/L) of each antibody for FcγRs were calculated using Biacore Insight Evaluation Software, with a steady state affinity model for the dissociation constant for FcγRIIb and a 1:1 Langmuir binding model for the dissociation constants for the other FcγRs (Table 2).

Binder | Relative value to KD between G1d and hFcgRs
B1 | 1.3 times
B2 | 49 times
B3 | 3.2 times
B4 | 1.6 times
B5 | 13.7 times

The binders below were run against T2, human FcγRIIa H extracellular domain (assay: SPR; KD of G1d divided by KD of this antibody).
Procedure: as §1

Binder | Relative value to KD between G1d and hFcgRs
B1 | 4.9 times
B2 | 14.7 times
B3 | 6.3 times
B4 | 4.3 times
B5 | 32.1 times

These binders were tested against T5, human FcγRIIIa V extracellular domain (human, UniProt P08637 17-208) (assay: SPR; KD of G1d divided by KD of this antibody).
T5 construct: extracellular domain; also called hFcγR IIIa V; FcγRIIIa allotype V158
Procedure: as §1

T5 sequence (P08637 17-208 F176V): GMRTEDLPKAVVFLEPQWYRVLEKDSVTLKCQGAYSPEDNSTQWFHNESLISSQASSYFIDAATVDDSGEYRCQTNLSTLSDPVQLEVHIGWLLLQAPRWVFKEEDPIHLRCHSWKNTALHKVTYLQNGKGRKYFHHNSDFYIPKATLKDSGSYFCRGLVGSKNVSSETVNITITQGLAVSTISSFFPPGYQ

Binder | Relative value to KD between G1d and hFcgRs
B1 | 97.5 times
B2 | 215 times
B3 | 462 times
B4 | 323 times
B5 | 114 times

Each binder was assayed against T6, human FcγRIa extracellular domain (human, UniProt P12314 16-292) (assay: SPR; KD of G1d divided by KD of this antibody).
T6 construct: extracellular domain; also called hFcγR Ia
Procedure: as §1

T6 sequence (P12314 16-292): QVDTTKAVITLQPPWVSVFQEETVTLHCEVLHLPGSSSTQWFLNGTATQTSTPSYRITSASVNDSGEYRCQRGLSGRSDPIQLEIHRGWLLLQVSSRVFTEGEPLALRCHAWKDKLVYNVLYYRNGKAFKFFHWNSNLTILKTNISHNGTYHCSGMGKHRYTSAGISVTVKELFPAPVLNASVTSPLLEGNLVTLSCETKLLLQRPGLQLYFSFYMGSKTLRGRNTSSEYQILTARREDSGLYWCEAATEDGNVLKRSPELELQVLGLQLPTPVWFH

Binder | Relative value to KD between G1d and hFcgRs
B1 | 2.4 times
B2 | 3.4 times
B3 | 2.9 times
B4 | 3 times
B5 | 0.5 times

These binders were tested against T3, human FcγRIIb extracellular domain (assay: SPR; KD of G1d divided by KD of this antibody).
Procedure: as §1

Binder | Relative value to KD between G1d and hFcgRs
B1 | 0.7 times
B2 | 22.8 times
B3 | 0.9 times
B4 | 0.8 times
B5 | 1.6 times

What follows are binders tested against T7, human FcγRIIIa F extracellular domain (human, UniProt P08637 17-208) (assay: SPR; KD of G1d divided by KD of this antibody).
T7 construct: extracellular domain; also called hFcγR IIIa F; FcγRIIIa allotype F158
Procedure: as §1

T7 sequence (P08637 17-208): as the sequence (P08637 17-208 F176V) above, with V160F counted along it

Binder | Relative value to KD between G1d and hFcgRs
B1 | 141 times
B2 | 460 times
B3 | 2520 times
B4 | 1170 times
B5 | 185 times

The binders below were run against T1, human FcγRIIa R extracellular domain (assay: SPR; KD for hFcγRIIb divided by KD for this FcγR).
Procedure: as §1

Binder | A/I ratio (KD for FcγRIIb divided by KD for each FcγR)
B1 | 11.5 ratio
B2 | 13 ratio
B3 | 22.5 ratio
B4 | 12.4 ratio
B5 | 52.4 ratio

Each binder was assayed against T2, human FcγRIIa H extracellular domain (assay: SPR; KD for hFcγRIIb divided by KD for this FcγR).
Procedure: as §1

Binder | A/I ratio (KD for FcγRIIb divided by KD for each FcγR)
B1 | 63.3 ratio
B2 | 5.8 ratio
B3 | 65.2 ratio
B4 | 47.4 ratio
B5 | 181 ratio

The binders below were run against T5, human FcγRIIIa V extracellular domain (assay: SPR; KD for hFcγRIIb divided by KD for this FcγR).
Procedure: as §1

Binder | A/I ratio (KD for FcγRIIb divided by KD for each FcγR)
B1 | 3970 ratio
B2 | 264 ratio
B3 | 15000 ratio
B4 | 11300 ratio
B5 | 2000 ratio

Each binder was assayed against T7, human FcγRIIIa F extracellular domain (assay: SPR; KD for hFcγRIIb divided by KD for this FcγR).
Procedure: as §1

Binder | A/I ratio (KD for FcγRIIb divided by KD for each FcγR)
B1 | 694 ratio
B2 | 68.4 ratio
B3 | 9940 ratio
B4 | 4950 ratio
B5 | 396 ratio

These binders were tested against T4, hFcγRIIaH on Jurkat effector cells (assay: cell-based or functional assay).

Binder | EC50 of reporter gene induction (ADCP Reporter Bioassay, Hepa1-6/hEREG target cells)
B1 | 36.7 ng/mL
B2 | 21.8 ng/mL
B3 | 43.2 ng/mL
B4 | 35.3 ng/mL
B5 | 15.8 ng/mL

These binders were tested against hFcγRIIIaV on Jurkat effector cells (human, UniProt P08637 17-254) (assay: cell-based or functional assay).
Sequence of hFcγRIIIaV on Jurkat effector cells (P08637 17-254, form in doubt): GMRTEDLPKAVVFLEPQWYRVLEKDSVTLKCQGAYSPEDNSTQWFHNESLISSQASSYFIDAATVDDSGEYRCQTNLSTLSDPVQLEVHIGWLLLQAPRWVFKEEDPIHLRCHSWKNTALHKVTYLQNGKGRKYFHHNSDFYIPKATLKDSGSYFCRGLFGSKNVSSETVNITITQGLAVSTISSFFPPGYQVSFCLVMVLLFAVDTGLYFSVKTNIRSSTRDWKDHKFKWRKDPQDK

Binder | EC50 of reporter gene induction (ADCC Reporter Bioassay, Hepa1-6/hEREG target cells)
B1 | 0.413 ng/mL
B2 | 1.35 ng/mL
B3 | 0.789 ng/mL
B4 | 0.716 ng/mL
B5 | 1.53 ng/mL
